# Laboratory results as given in paper PMC11574045, “A cofactor-induced repressive type of transcription factor condensation can be induced by synthetic peptides to suppress tumorigenesis” (The EMBO Journal, 2024).
# B1: MAEL (protein, UniProt Q96JY0 1-434, looked up)
# Protein maelstrom homolog: MPNRKASRNAYYFFVQEKIPELRRRGLPVARVADAIPYCSSDWALLREEEKEKYAEMAREWRAAQGKDPGPSEKQKPVFTPLRRPGMLVPKQNVSPPDMSALSLKGDQALLGGIFYFLNIFSHGELPPHCEQRFLPCEIGCVKYSLQEGIMADFHSFINPGEIPRGFRFHCQAASDSSHKIPISNFERGHNQATVLQNLYRFIHPNPGNWPPIYCKSDDRTRVNWCLKHMAKASEIRQDLQLLTVEDLVVGIYQQKFLKEPSKTWIRSLLDVAMWDYSSNTRCKWHEENDILFCALAVCKKIAYCISNSLATLFGIQLTEAHVPLQDYEASNSVTPKMVVLDAGRYQKLRVGSSGFSHFNSSNEEQRSNTPIGDYPSRAKISGQNSSVRGRGITRLLESISNSSSNIHKFSNCDTSLSPYMSQKDGYKSFSSLS
# B2: LMO1 (protein, UniProt P25800 1-156, looked up)
# Rhombotin-1: MMVLDKEDGVPMLSVQPKGKQKGCAGCNRKIKDRYLLKALDKYWHEDCLKCACCDCRLGEVGSTLYTKANLILCRRDYLRLFGTTGNCAACSKLIPAFEMVMRARDNVYHLDCFACQLCNQRFCVGDKFFLKNNMILCQMDYEEGQLNGTFESQVQ
# B3: LHX2 (protein, UniProt P50458 1-406, looked up)
# LIM/homeobox protein Lhx2: MLFHSLSGPEVHGVIDEMDRRAKSEAPAISSAIDRGDTETTMPSISSDRAALCAGCGGKISDRYYLLAVDKQWHMRCLKCCECKLNLESELTCFSKDGSIYCKEDYYRRFSVQRCARCHLGISASEMVMRARDLVYHLNCFTCTTCNKMLTTGDHFGMKDSLVYCRLHFEALLQGEYPAHFNHADVAAAAAAAAAAKSAGLGAAGANPLGLPYYNGVGTVQKGRPRKRKSPGPGADLAAYNAALSCNENDAEHLDRDQPYPSSQKTKRMRTSFKHHQLRTMKSYFAINHNPDAKDLKQLAQKTGLTKRVLQVWFQNARAKFRRNLLRQENTGVDKSTDAALQTGTPSGPASELSNASLSPSSTPTTLTDLTSPTLPTVTSVLTSVPGNLEGHEPHSPSQTTLTNLF
# B4: MADH1 (protein, UniProt Q15797 1-465, looked up)
# Mothers against …: MNVTSLFSFTSPAVKRLLGWKQGDEEEKWAEKAVDALVKKLKKKKGAMEELEKALSCPGQPSNCVTIPRSLDGRLQVSHRKGLPHVIYCRVWRWPDLQSHHELKPLECCEFPFGSKQKEVCINPYHYKRVESPVLPPVLVPRHSEYNPQHSLLAQFRNLGQNEPHMPLNATFPDSFQQPNSHPFPHSPNSSYPNSPGSSSSTYPHSPTSSDPGSPFQMPADTPPPAYLPPEDPMTQDGSQPMDTNMMAPPLPSEINRGDVQAVAYEEPKHWCSIVYYELNNRVGEAFHASSTSVLVDGFTDPSNNKNRFCLGLLSNVNRNSTIENTRRHIGKGVHLYYVGGEVYAECLSDSSIFVQSRNCNYHHGFHPTTVCKIPSGCSLKIFNNQEFAQLLAQSVNHGFETVYELTKMCTIRMSFVKGWGAEYHRQDVTSTPCWIEIHLHGPLQWLDKVLTQMGSPHNPISSVS
# B5: MAD3 (protein, UniProt Q9BW11 1-206, looked up)
# Max dimerization protein 3: MEPLASNIQVLLQAAEFLERREREAEHGYASLCPHRSPGPIHRRKKRPPQAPGAQDSGRSVHNELEKRRRAQLKRCLERLKQQMPLGADCARYTTLSLLRRARMHIQKLEDQEQRARQLKERLRSKQQSLQRQLEQLRGLAGAAERERLRADSLDSSGLSSERSDSDQEELEVDVESLVFGGEAELLRGFVAGQEHSYSHGGGAWL
# B6: LMX1B (protein, UniProt O60663 1-402, looked up)
# LIM homeobox transcription …: MDIATGPESLERCFPRGQTDCAKMLDGIKMEEHALRPGPATLGVLLGSDCPHPAVCEGCQRPISDRFLMRVNESSWHEECLQCAACQQALTTSCYFRDRKLYCKQDYQQLFAAKCSGCMEKIAPTEFVMRALECVYHLGCFCCCVCERQLRKGDEFVLKEGQLLCKGDYEKEKDLLSSVSPDESDSVKSEDEDGDMKPAKGQGSQSKGSGDDGKDPRRPKRPRTILTTQQRRAFKASFEVSSKPCRKVRETLAAETGLSVRVVQVWFQNQRAKMKKLARRHQQQQEQQNSQRLGQEVLSSRMEGMMASYTPLAPPQQQIVAMEQSPYGSSDPFQQGLTPPQMPGDHMNPYGNDSIFHDIDSDTSLTSLSDCFLGSSDVGSLQARVGNPIDRLYSMQSSYFAS
# B7: LITAF (protein, UniProt Q99732 1-161, looked up)
# Lipopolysaccharide-induced …: MSVPGPYQAATGPSSAPSAPPSYEETVAVNSYYPTPPAPMPGPTTGLVTGPDGKGMNPPSYYTQPAPIPNNNPITVQTVYVQHPITFLDRPIQMCCPSCNKMIVSQLSYNAGALTWLSCGSLCLLGCIAGCCFIPFCVDALQDVDHYCPNCRALLGTYKRL
# B8: MAD (protein, UniProt Q05195 1-221, looked up)
# Max dimerization protein 1: MAAAVRMNIQMLLEAADYLERREREAEHGYASMLPYNNKDRDALKRRNKSKKNNSSSRSTHNEMEKNRRAHLRLCLEKLKGLVPLGPESSRHTTLSLLTKAKLHIKKLEDCDRKAVHQIDQLQREQRHLKRQLEKLGIERIRMDSIGSTVSSERSDSDREEIDVDVESTDYLTGDLDWSSSSVSDSDERGSMQSLGSDEGYSSTSIKRIKLQDSHKACLGL
# B9: LIN28 (protein, UniProt Q9H9Z2 2-209, looked up)
# Protein lin-28 homolog A: GSVSNQQFAGGCAKAAEEAPEEAPEDAARAADEPQLLHGAGICKWFNVRMGFGFLSMTARAGVALDPPVDVFVHQSKLHMEGFRSLKEGEAVEFTFKKSAKGLESIRVTGPGGVFCIGSERRPKGKSMQKRRSKGDRCYNCGGLDHHAKECKLPPQPKKCHFCQSISHMVASCPLKAQQGPSAQGKPTYFREEEEEIHSPTLLPEAQN
# B10: LIN28B (protein, UniProt Q6ZN17 1-250, looked up)
# Protein lin-28 homolog B: MAEGGASKGGGEEPGKLPEPAEEESQVLRGTGHCKWFNVRMGFGFISMINREGSPLDIPVDVFVHQSKLFMEGFRSLKEGEPVEFTFKKSSKGLESIRVTGPGGSPCLGSERRPKGKTLQKRKPKGDRCYNCGGLDHHAKECSLPPQPKKCHYCQSIMHMVANCPHKNVAQPPASSQGRQEAESQPCTSTLPREVGGGHGCTSPPFPQEARAEISERSGRSPQEASSTKSSIAPEEQSKKGPSVQKRKKT
# B11: LMCD1 (protein, UniProt Q9NZU5 1-365, looked up)
# LIM and cysteine-rich domains …: MAKVAKDLNPGVKKMSLGQLQSARGVACLGCKGTCSGFEPHSWRKICKSCKCSQEDHCLTSDLEDDRKIGRLLMDSKYSTLTARVKGGDGIRIYKRNRMIMTNPIATGKDPTFDTITYEWAPPGVTQKLGLQYMELIPKEKQPVTGTEGAFYRRRQLMHQLPIYDQDPSRCRGLLENELKLMEEFVKQYKSEALGVGEVALPGQGGLPKEEGKQQEKPEGAETTAATTNGSLSDPSKEVEYVCELCKGAAPPDSPVVYSDRAGYNKQWHPTCFVCAKCSEPLVDLIYFWKDGAPWCGRHYCESLRPRCSGCDEIIFAEDYQRVEDLAWHRKHFVCEGCEQLLSGRAYIVTKGQLLCPTCSKSKRS
# B12: MADH4 (protein, UniProt Q13485 1-552, looked up)
# Mothers against …: MDNMSITNTPTSNDACLSIVHSLMCHRQGGESETFAKRAIESLVKKLKEKKDELDSLITAITTNGAHPSKCVTIQRTLDGRLQVAGRKGFPHVIYARLWRWPDLHKNELKHVKYCQYAFDLKCDSVCVNPYHYERVVSPGIDLSGLTLQSNAPSSMMVKDEYVHDFEGQPSLSTEGHSIQTIQHPPSNRASTETYSTPALLAPSESNATSTANFPNIPVASTSQPASILGGSHSEGLLQIASGPQPGQQQNGFTGQPATYHHNSTTTWTGSRTAPYTPNLPHHQNGHLQHHPPMPPHPGHYWPVHNELAFQPPISNHPAPEYWCSIAYFEMDVQVGETFKVPSSCPIVTVDGYVDPSGGDRFCLGQLSNVHRTEAIERARLHIGKGVQLECKGEGDVWVRCLSDHAVFVQSYYLDREAGRAPGDAVHKIYPSAYIKVFDLRQCHRQMQQQAATAQAAAAAQAAAVAGNIPGPGSVGGIAPAISLSAAAGIGVDDLRRLCILRMSFVKGWGPDYPRQSIKETPCWIEIHLHRALQLLDEVLHTMPIADPQPLD
# B13: LEF1 (protein, UniProt Q9UJU2 1-399, looked up)
# Lymphoid enhancer-binding …: MPQLSGGGGGGGGDPELCATDEMIPFKDEGDPQKEKIFAEISHPEEEGDLADIKSSLVNESEIIPASNGHEVARQAQTSQEPYHDKAREHPDDGKHPDGGLYNKGPSYSSYSGYIMMPNMNNDPYMSNGSLSPPIPRTSNKVPVVQPSHAVHPLTPLITYSDEHFSPGSHPSHIPSDVNSKQGMSRHPPAPDIPTFYPLSPGGVGQITPPLGWQGQPVYPITGGFRQPYPSSLSVDTSMSRFSHHMIPGPPGPHTTGIPHPAIVTPQVKQEHPHTDSDLMHVKPQHEQRKEQEPKRPHIKKPLNAFMLYMKEMRANVVAECTLKESAAINQILGRRWHALSREEQAKYYELARKERQLHMQLYPGWSARDNYGKKKKRKREKLQESASGTGPRMTAAYI
# B14: ASCL2 (protein, UniProt Q99929 1-193, looked up)
# Achaete-scute homolog 2: MDGGTLPRSAPPAPPVPVGCAARRRPASPELLRCSRRRRPATAETGGGAAAVARRNERERNRVKLVNLGFQALRQHVPHGGASKKLSKVETLRSAVEYIRALQRLLAEHDAVRNALAGGLRPQAVRPSAPRGPPGTTPVAASPSRASSSPGRGGSSEPGSPRSAYSSDDSGCEGALSPAERELLDFSSWLGGY
# B15: LHX3 (protein, UniProt Q9UBR4 1-397, looked up)
# LIM/homeobox protein Lhx3: MLLETGLERDRARPGAAAVCTLGGTREIPLCAGCDQHILDRFILKALDRHWHSKCLKCSDCHTPLAERCFSRGESVYCKDDFFKRFGTKCAACQLGIPPTQVVRRAQDFVYHLHCFACVVCKRQLATGDEFYLMEDSRLVCKADYETAKQREAEATAKRPRTTITAKQLETLKSAYNTSPKPARHVREQLSSETGLDMRVVQVWFQNRRAKEKRLKKDAGRQRWGQYFRNMKRSRGGSKSDKDSVQEGQDSDAEVSFPDEPSLAEMGPANGLYGSLGEPTQALGRPSGALGNFSLEHGGLAGPEQYRELRPGSPYGVPPSPAAPQSLPGPQPLLSSLVYPDTSLGLVPSGAPGGPPPMRVLAGNGPSSDLSTGSSGGYPDFPASPASWLDEVDHAQF
# System: HEK293FT cells transfected with TF library
# Assay: Screening of TF condensates based on fluorescent puncta
# Format: cell-based
# Details: Figure 1B numerical data; TF library screen, one value per transcriptional factor
# Procedure, shortened: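 Puncta scoring used automated confocal imaging of fifty random fields per well, after anti-Flag or anti-GAL4 immunofluorescence (Alexa 488) in PFA-fixed cells. HEK293FT cells carried TF library plasmids delivered with PEI (1.6 μg/ml DNA). At 60 h they were switched for 12 h to glucose-containing or glucose-free medium.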
row,Molecule,Z score of condensed fraction
1,B1,-0.816
2,B2,0.976
3,B3,0.8007
4,B4,-0.2284
5,B5,-1.116
6,B6,0.1118
7,B7,0.004705
8,B8,0.4682
9,B9,-0.1683
10,B10,-0.9223
11,B11,2.397
12,B12,-0.6861
13,B13,0.2503
14,B14,0.864
15,B15,-0.2379
